Test [1] concerns the target T1, PK1R (Rattus norvegicus, UniProt Q8R416). Particulars: test compound 1 μM basolateral, 15 min; PK1 10 and 100 nM cumulative; FIGS. 9-11. As to the method: Methodology. The basic methodology for Using-type ion flux chambers used in these studies was the same as that described in detail above with the following modifications to the experimental protocol. […] The responses to two sequential EFS were used to guage tissue viability and comparability of the responses of individual tissues from each rat and between rats. Tissue conductance was measured at periodic intervals as changes in the amplitudes of brief short-circuit current responses evoked by application of 1 mV amplitude bi-polar pulses from a pulse generator using Ohm's Law. Three to four tissues from each rat were studied. The tissues from a given animal were grouped and assigned accordingly: one control tissue which received only vehicle followed by two consecutive doses of PK1 ligand added in a cumulative fashion to the basolateral surface of the tissue; the remaining two to three tissues from the same animal were assigned to be exposed to a given PK1 receptor antagonist (e.g., 3-4 tissues from 1 rat: Control, Antagonist1, Antagonist2, Antagonist3). Test compound was added to the basolateral tissue side reservoir at a final concentration of 1 μM and allowed a 15 minute incubation period prior to challenge with the PK1 peptide. At the end of this 15 minute exposure period, PK1 ligand at 10 and 100 nM was added in a cumulative fashion to each tissue to characterize the inhibitory effect of the test compound. At the conclusion of the experiment, EFS was re-applied to guage tissue viability and stability of responsiveness.

Test [2] has as its target T1, PK1R. Kind of test: Inhibition of PK1-induced contraction of rat ileal longitudinal smooth muscle by PK1R antagonists (organ bath). On the set-up: from tissue; host or cells: isolated rat ileum (organ bath). The settings on record: FIG. 19. From the text: The effects of PK1 on isolated segments of rodent gastrointestinal (GI) tissues have been studied ex vivo, using a “myobath” apparatus. This organ bath apparatus is used to measure the changes in contractile activity of GI smooth muscle following application of PK1, in the presence or absence of compounds that block PK1 receptor (PK1R)-mediated increases in intracellular free Ca^2+ in PK1R-transfected cells in vitro.
Methods. Rodents (mice, rats, and guinea pigs) were euthanized by […], and exsanguinated. Segments of GI tissues, including stomach, duodenum, jejunum, ileum, proximal colon and distal colon were resected from the animals and mounted, either as intact segments (i.e., 15 mm long cylinders of intestine) or flat strips (˜2.5 mm×15 mm) oriented along the longitudinal muscle axis. In some experiments flat strips were oriented along the circular muscle axis. […]
The tissues were lengthened to impart a resting load of between […] (depending on the preparation), and equilibrated under these conditions for 1 hr, changing the bathing solution to fresh KRB every 15 min. […] The response to PK1 under these conditions is compared to the response of the same tissue preparation to ACh and the contraction (or relaxation) calculated as a percent of the response to ACh. […]

Test [3] has as its system rat small intestine. The test is described as follows: Small intestinal transit of an oral carmine test meal in rats in vivo. The settings on record: oral PK1 100 μg/kg; 30 min; FIG. 14. As to the method: Methodology. Small intestinal transit. Rats received a bolus of 1.5 ml total volume that contained a 6% solution of carmine dye in 0.5% methyl cellulose (wt/vol) together with a dose of either PK1 (100 μg/kg) or vehicle by oral feeding tube. After 30 min, the rats were rapidly euthanized by cervical dislocation after inhalation anesthesia with 100% carbon dioxide. The entire small intestine of each rat was carefully resected starting at the ileal-cecal junction first and working back toward the pylorus of the stomach until the entire small intestine had been removed intact. The excised small bowel was arranged lengthwise along a metric straight-edge, and the length of the entire small intestine was measured in centimeters. The leading edge of the carmine dye front was visualized and the distance traveled by the carmine was also measured and calculated as a percentage of the total excised length of the small intestine. Transit was expressed as the percentage of the total intestinal length traveled by the carmine dye in 30 minutes.

The test system of test [4] is rat small intestine. Kind of test: Enteropooling and accumulation of fluid in rat small intestine in vivo. Particulars: 30 min. How it is done:
Methodology. Experiments were carried out to gravimetrically measure the in vivo pro-secretory effect of PK1 peptide in the rat small bowel. The effect of PK1 peptide on stimulation of enteropooling and accumulation of fluid in the gut of intact rats was evaluated using two different routes of administration. Non-fasted rats were randomly assigned to two experimental groups (n=10 per group) in two separate experiments. In the first experiment, each rat was given an oral bolus (1.5 ml) of 6% carmine dye in 0.5% methylcellulose wt/vol containing a dose of PK1 peptide at 100 μg/kg or buffer vehicle. (See FIG. 12). […] (See FIG. 13). Thirty minutes later, rats were rapidly euthanized by cervical dislocation after inhalation anesthesia with 100% carbon dioxide and the entire small intestine was excised from the pylorus to the ileocecal junction. The total small bowel length was measured and then divided equally into thirds using 4-0 silk suture loops to ligate, isolate, and separate each segment to prevent leakage of intraluminal contents. […] Net fluid content weight was calculated as the difference between intact and empty intestinal segment weights to the nearest milligram and normalized to segment wet tissue weight in grams.

Test [5] has as its system ileum mucosal tissues from PK1 receptor knock-out mice. Kind of test: PK1-evoked Isc in ileum mucosal tissues from PK1 receptor knock-out mice. Particulars: exogenous PK1 peptide; FIG. 5.
The subject of the next test is rat ileum. Kind of test: Contractility of isolated rat GI segments ex vivo (myobath organ bath), response to PK1.

T1 sequence (Q8R416 whole entry): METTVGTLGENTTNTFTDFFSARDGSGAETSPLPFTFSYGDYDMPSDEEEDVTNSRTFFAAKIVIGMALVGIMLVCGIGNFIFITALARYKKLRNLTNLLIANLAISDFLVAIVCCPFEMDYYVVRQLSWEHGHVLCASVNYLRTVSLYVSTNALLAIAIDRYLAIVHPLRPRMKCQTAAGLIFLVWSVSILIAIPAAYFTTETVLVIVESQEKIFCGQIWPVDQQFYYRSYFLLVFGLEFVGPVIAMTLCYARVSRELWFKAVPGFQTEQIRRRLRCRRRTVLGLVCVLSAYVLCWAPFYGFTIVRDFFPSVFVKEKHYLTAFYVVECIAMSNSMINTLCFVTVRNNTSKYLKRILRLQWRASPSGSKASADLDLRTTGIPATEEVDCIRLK

Consider `[H]/N=C(\N)NCCNc1nc(=O)n(Cc2ccc(F)cc2)c(=O)n1Cc1ccc(OC)cc1` [JNJ 27624675], for which the “suppression of the PK1 evoked increase in Isc” value on PK1R [1] was “suppressed”.

As to `COc1ccc(Cn2c(NCCn3c(N)nc4ccccc43)nc(=O)n(Cc3ccc(F)cc3)c2=O)cc1` [JNJ 28845557], the “early versus late response inhibition” value on PK1R [2] was “more potent and more effective at inhibition of the early response”. The “effect on the PK1-induced contraction of rat ileal longitudinal smooth muscle” value at PK1R [2] (early and late components) is reported as “concentration-dependent inhibitory effect”. Further, the “suppression of the PK1 evoked increase in Isc” value at PK1R [1] was “suppressed”.

With `COc1ccc(Cn2c(NCCNC(=N)NC(C)C)nc(=O)n(Cc3ccc(Cl)c(Cl)c3)c2=O)cc1` [JNJ 28480894], the “suppression of the PK1 evoked increase in Isc” value at PK1R [1] is listed as “suppressed”.

B1: PK1: recombinant human Prokineticin 1 expressed in HEK 293 cells, FLAG tag cleaved; mixture of full-length and four C-terminal residue truncated product (protein, UniProt P58294 20-105, looked up)
Prokineticin-1: AVITGACERDVQCGAGTCCAISLWLRGLRMCTPLGREGEECHPGSHKVPFFRKRKHHTCPCLPNLLCSRFPDGRYRCSMDLKNINF
modifications: mixture with C-terminal 4-residue truncated form
notes: recombinant human Prokineticin 1 expressed in HEK 293 cells, FLAG tag cleaved; mixture of full-length and four C-terminal residue truncated product
For B1, in the test on rat small intestine [3], the “small intestinal transit of a carmine test meal compared to vehicle” value is “significantly accelerated”. The “fluid accumulation in rat small bowel in vivo” value with rat small intestine [4] (intraperitoneal PK1 100 μg/kg, FIG. 13) is reported as “stimulates fluid accumulation”. The “fluid accumulation in rat small bowel in vivo” value with rat small intestine [4] (oral PK1 100 μg/kg, FIG. 12) is “stimulates fluid accumulation”. The “change in Isc in tissues from PK1 receptor knock-out mice compared to wild-type littermates” value in test [5] is listed as “did not elicit a significant change in Isc”. For the same molecule, in the test with rat ileum (PK1 100 nM), the “response of intestinal tissues (mid-duodenum, jejunum, distal ileum)” value is “evoked longitudinal contractions”; the “response of proximal and distal colon” value is given as “evoked longitudinal relaxations”. In the test on rat ileum (isolated rat ileum), the “time to peak contraction, early phase” value is recorded as 6.4 min and the “time to peak contraction, late phase” value was 53.8 min.

(Values after patent US8188081B2, “Methods of treating inflammation using prokineticin 1 receptor antagonists” (Janssen Pharmaceutica, NV, priority 2005, dated 2012).)
